This experiment concerns the target human C1q (human, UniProt P02745 23-245; P02746 28-253; P02747 29-245). The experiment in a line: cell-based or functional assay.

human C1q, sequence (P02745 23-245 limits assumed, chain 1 of 3): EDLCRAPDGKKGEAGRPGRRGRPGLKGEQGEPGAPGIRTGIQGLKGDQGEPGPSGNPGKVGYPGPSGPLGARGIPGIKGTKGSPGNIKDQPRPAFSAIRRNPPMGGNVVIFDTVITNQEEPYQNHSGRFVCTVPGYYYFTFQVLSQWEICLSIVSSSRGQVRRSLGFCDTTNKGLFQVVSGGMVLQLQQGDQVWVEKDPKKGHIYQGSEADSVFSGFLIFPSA
human C1q, sequence (P02746 28-253 limits assumed, chain 2 of 3): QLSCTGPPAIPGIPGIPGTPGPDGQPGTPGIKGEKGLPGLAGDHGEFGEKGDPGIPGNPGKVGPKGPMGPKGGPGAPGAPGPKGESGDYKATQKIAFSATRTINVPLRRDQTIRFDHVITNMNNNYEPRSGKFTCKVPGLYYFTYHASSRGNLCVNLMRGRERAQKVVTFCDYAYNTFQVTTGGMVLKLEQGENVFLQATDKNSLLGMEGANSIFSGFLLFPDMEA
human C1q, sequence (P02747 29-245 limits assumed, chain 3 of 3): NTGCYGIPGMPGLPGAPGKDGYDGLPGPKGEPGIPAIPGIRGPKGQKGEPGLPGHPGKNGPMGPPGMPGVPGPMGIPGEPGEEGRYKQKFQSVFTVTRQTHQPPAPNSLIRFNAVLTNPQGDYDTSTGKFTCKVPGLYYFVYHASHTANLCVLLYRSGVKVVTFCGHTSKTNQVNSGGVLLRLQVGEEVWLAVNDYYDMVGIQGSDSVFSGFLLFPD

B1: FabA (Fab)
heavy: QVQLVQSGAELKKPGASVKVSCKSSGYHFTSYWMHWVKQAPGQGLEWIGVIHPNSGSINYNEKFESRVTITVDKSTSTAYMELSSLRSEDTAVYYCAGERDSTEVLPMDYWGQGTTVTVSSASTKGPSVFPLAPSSKSTSGGTAALGCLVKDYFPEPVTVSWNSGALTSGVHTFPAVLQSSGLYSLSSVVTVPSSSLGTQTYICNVNHKPSNTKVDKKVEPKSCDKTHT
light: DVQITQSPSSLSASLGERATINCRASKSINKYLAWYQQKPGKAPKLLIYSGSTLQSGIPARFSGSGSGTDFTLTISSLEPEDFAMYYCQQHNEYPLTFGQGTKLEIKRTVAAPSVFIFPPSDEQLKSGTASVVCLLNNFYPREAKVQWKVDNALQSGNSQESVTEQDSKDSTYSLSSTLTLSKADYEKHKVYACEVTHQGLSSPVTKSFNRGEC
In the case of B1, the “IC50 of block of the classical pathway (Weislab ELISA, IgM-coated wells, C5b-9 detection)” value is at most 0.3 mg/L.

The record behind these values is patent US20240059765A1 (ANNEXON, published 2024).
